Source: patent US20260043046A1 (ADVERUM BIOTECHNOLOGIES, published 2026)

Tests used:
[1] = molecular target: T1, human complement C3 (Cat: C2910, Sigma) (human, UniProt P01024 23-1663); experiment: BLI (Octet HTX, 25 °C), human IgG1 in buffer against human complement C3
T1 construct: Bought protein; Native C3 is a two-chain (beta/alpha) protein processed from one precursor, so it is written here as one natural entry; also called Complement component 3

[2] = molecular target: T1, human complement C3 (Cat: C2910, Sigma); experiment: BLI (Octet HTX, 25 °C), HEK293 supernatant against human complement C3
Description: Supernatant from suspension HEK293 cells transfected with vector carrying gene encoding anti-C3 antibody (cell culture and transfection methods can be found in previous section) were used for kinetics analysis via Octet (BLI) to measure binding affinity to human complement C3 (Cat: C2910, Sigma). Binding experiments were performed on Octet HTX at 25° C. by LakePharma (Redwood City, CA). There were three test articles including products of pADV1176 (0.015 mg/mL), negative control (supernatant from untransfected cells) and positive control (human IgG1 in buffer—137 mM NaCl, 2.7 mM KCl, 10 mM Na₂HPO₄, 2 mM KH₂PO₄, pH 7.4, 0.98 mg/mL).

T1 sequence (P01024 23-1663 limits assumed): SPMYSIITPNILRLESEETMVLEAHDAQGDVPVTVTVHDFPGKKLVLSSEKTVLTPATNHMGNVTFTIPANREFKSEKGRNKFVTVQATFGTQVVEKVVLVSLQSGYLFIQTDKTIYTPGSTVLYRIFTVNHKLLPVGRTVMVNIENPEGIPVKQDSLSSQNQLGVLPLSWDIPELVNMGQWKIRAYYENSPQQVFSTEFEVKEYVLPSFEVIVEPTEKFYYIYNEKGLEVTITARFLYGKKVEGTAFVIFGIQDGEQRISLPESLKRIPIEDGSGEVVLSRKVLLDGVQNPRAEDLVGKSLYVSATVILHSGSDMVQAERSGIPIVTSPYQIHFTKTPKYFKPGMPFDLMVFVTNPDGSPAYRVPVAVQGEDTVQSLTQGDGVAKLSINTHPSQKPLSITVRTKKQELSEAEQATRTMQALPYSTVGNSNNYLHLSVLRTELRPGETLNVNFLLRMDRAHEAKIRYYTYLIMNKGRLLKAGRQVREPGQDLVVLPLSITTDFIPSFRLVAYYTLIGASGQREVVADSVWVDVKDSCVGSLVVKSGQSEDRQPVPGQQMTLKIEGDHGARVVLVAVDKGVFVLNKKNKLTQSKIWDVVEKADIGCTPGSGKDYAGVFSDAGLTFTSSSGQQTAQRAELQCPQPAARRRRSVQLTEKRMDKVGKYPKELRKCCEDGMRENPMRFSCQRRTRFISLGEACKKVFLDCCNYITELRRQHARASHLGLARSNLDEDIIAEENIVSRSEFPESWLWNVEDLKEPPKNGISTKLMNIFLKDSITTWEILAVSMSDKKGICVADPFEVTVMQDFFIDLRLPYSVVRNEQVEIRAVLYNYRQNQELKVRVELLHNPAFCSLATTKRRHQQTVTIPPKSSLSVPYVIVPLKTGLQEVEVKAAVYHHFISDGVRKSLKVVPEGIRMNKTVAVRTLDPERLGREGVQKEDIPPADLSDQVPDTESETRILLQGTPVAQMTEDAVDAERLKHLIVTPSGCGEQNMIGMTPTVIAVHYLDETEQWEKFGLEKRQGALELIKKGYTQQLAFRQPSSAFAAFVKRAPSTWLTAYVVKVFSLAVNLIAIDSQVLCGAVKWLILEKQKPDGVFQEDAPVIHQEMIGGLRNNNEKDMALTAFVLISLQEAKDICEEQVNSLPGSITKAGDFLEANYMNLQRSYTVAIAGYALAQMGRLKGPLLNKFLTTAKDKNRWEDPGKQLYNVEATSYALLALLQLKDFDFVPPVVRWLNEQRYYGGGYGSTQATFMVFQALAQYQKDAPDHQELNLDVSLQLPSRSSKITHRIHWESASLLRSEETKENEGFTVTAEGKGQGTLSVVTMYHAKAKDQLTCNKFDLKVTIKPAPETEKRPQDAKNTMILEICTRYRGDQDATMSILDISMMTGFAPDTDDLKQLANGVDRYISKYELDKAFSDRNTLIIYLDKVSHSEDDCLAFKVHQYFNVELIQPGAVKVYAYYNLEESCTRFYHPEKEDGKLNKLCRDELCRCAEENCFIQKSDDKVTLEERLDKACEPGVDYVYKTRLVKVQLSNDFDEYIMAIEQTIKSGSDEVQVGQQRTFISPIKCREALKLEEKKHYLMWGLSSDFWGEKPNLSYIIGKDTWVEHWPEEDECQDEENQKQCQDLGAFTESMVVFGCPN

Row | Molecule | Kd [1] | koff [1] | kon [1] | Kd [2] | koff [2] | kon [2]
1 | Positive control (human IgG1 in buffer, 0.98 mg/mL) (antibody) | 0.256 nM | 4.92e-05 s⁻¹ | 193000 M⁻¹ s⁻¹ |  |  | 
2 | Products of pADV1176 (anti-C3 antibody expressed from plasmid pADV1176 in suspension HEK293 cells) (antibody, human IgG1, kappa, V domains shown, Full-length humanized human IgG1, tested as unpurified HEK293 supernatant at 0.015 mg/mL; Two copies of each chain is inferred from 'full-length' IgG1; also called humanized anti-C3 antibody; products of AAV2.7m8-pADV1176) VH: QVQLVQSGAEVKKPGASVKVSCKASGYTFTDFYMDWVRQAPGQRLEWMGYIYPHNAGTTYNQQFTGRVTITVDKSASTAYMELSSLRSEDTAVYYCARRGGFDFDYWGQGTLVTVSS VL: DIQMTQSPSSLSASVGDRVTITCKASENVDTYVSWYQQKPGKAPKLLIYGASNRYTGVPSRFSGSGSGTDFTFTISSLQPEDIATYHCGQSHSYPLTFGQGTKLEIKR |  |  |  | 0.13 nM | 2.67e-05 s⁻¹ | 206000 M⁻¹ s⁻¹
